Data published in patent US11384119B2, “Compositions and methods for inhibiting CD279 interactions” (priority 2015, dated 2022).

How the values were obtained:
tumour cell line LL/2 = test: In vivo LL/2 tumour model in C57Bl/6 mice; details: 200 mg/kg IP for 7 days
Method: More particularly, mice strain C57Bl/6 (male, 4-weeks, initial body weight˜20-22 g) were inoculated with tumour cell line LL/2, at S.C. 10^5 per mouse. After 14 days post-implantation, the mice were treated with D-TW or D-TW-Scrambled for 7 days (at 200 mg/kg), via intraperitoneal (IP) injection.

[1] = target: T1, human PD-L1 (PD-1/PD-L1 interaction) (Homo sapiens, UniProt Q9NZQ7); test: Competition ELISA: peptide blocking of recombinant human PD-1 Fc binding to plate-coated human PD-L1 Fc; details: peptide 0.008 μg/ml to 10 μg/ml, human PD-1 Fc 10 ng/ml; FIG. 1
T1 construct: Fc
Method: The binding of the WT or TF peptide to human PD-L1 was tested via competition ELISA. Varying concentrations of each peptide (0.008 μg/ml to 10 μg/ml) were mixed with a fixed concentration of recombinant human PD-1 Fc (10 ng/ml) and bound to a human PD-L1 Fc coated 96-well Immuno Maxisorp flat bottom plate. Binding was detected via a biotinylated anti-PD-1 antibody, streptavidin-horseradish peroxidase (HRP), and 3,3′,5,5′-Tetramethylbenzidine (TMB) substrate. Absorbance measurements were collected at 450 nm via a plate reader. The absorbance readings were plotted against the test peptide concentration.
More particularly, in this Example and referring to FIGS. 5A and 5B, WT represents SEQ ID NO:1; TF represents SEQ ID NO:2; ET represents SEQ ID NO:25; YT represents SEQ ID NO:28; and TW represents the reverse sequence of WT with D-amino acids, SEQ ID NO:34 (also referred to herein as “D-TW”). Different combination of such PD-L1 blocking peptides (3 and 10 μM) were mixed with recombinant human PD-1 Fc and bound to a human PD-L1 Fc coated 96-well Immuno Maxisorp flat bottom plate. Binding was detected via a biotinylated anti-PD-1 antibody, streptavidin-horseradish peroxidase (HRP), and 3,3′,5,5′-Tetramethylbenzidine (TMB) substrate. Absorbance measurements were collected at 450 nm via a plate reader. […]

PD-1/PD-L1 interaction [2] = target: T2, PD-1/PD-L1 interaction (Homo sapiens, UniProt Q9NZQ7); test: IL-2 production by PHA/PMA-activated Jurkat T cells co-cultured with recombinant human PD-L1 Fc (IL-2 ELISA); assay type: cell-based; set-up: Fc; host or cells: Jurkat T cells (PD-1 side); details: 1-10 μg/ml peptide, PD-L1 Fc 8 μg/ml, 37° C. for 48 hours; FIG. 2
Method: 5×10^4 Jurkat T cells were activated with 1 μg/ml of phytohemagglutinin (PHA) and 50 ng/ml of phorbol 12-myristate 13-acetate (PMA) and co-cultured with recombinant human PD-L1 Fc (8 μg/ml) plus 1-10 μg/ml of WT (FIG. 2A), 1-10 μg/ml of TF (FIG. 2B), or 1-10 μg/ml of combined WT and TF (FIG. 2C) peptide at 37° C. for 48 hours. Cell culture supernatant was harvested and interleukin-2 (IL-2) production from Jurkat T cells was assessed by IL-2 ELISA. The numbers shown above each bar in FIG. 2 represent IL-2 concentrations.
Target sequence in this assay (Q9NZQ7 19-238 limits assumed): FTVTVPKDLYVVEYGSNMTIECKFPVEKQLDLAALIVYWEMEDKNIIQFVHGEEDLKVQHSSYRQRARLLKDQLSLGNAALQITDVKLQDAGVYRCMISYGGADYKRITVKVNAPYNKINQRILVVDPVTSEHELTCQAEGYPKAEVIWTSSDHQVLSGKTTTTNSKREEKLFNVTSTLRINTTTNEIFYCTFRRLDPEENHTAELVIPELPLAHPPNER

PD-1/PD-L1 interaction [3] = target: T2, PD-1/PD-L1 interaction; test: IL-2 production by activated Jurkat T cells co-cultured with PD-L1-expressed U87 tumor cells (IL-2 ELISA); assay type: cell-based; set-up: endogenous in cells; host or cells: U87 tumor cells (PD-L1); Jurkat T cells (PD-1); details: for IL-2 concentration: different peptide concentrations, 37° C. for 48 hours, FIGS. 3A-3C; for blocking of PD-1/PD-L1 interaction (summary of the foregoing assay results): summary of FIGS. 1-3, the combination is compared with a single test peptide treatment
Method: In this Example, 5×10^4 Jurkat T cells were activated with […] of PHA and 50 ng/ml of PMA and co-cultured with 3×10^5 PD-L1-expressed U87 tumor cells mixed with different concentrations of WT (FIG. 3A), TF (FIG. 3B), or combined WT and TF (FIG. 3C) peptide at 37° C. for 48 hours. Cell culture supernatants were harvested and IL-2 production from the Jurkat T cells was assessed by IL-2 ELISA. The numbers shown above each bar in FIGS. 3A-3C represent IL-2 concentrations. […] Moreover, as shown in FIGS. 3A-3C, as the concentrations of the test peptides were increased, an increase in IL-2 concentration was observed.
Target sequence in this assay (Q9NZQ7 19-290): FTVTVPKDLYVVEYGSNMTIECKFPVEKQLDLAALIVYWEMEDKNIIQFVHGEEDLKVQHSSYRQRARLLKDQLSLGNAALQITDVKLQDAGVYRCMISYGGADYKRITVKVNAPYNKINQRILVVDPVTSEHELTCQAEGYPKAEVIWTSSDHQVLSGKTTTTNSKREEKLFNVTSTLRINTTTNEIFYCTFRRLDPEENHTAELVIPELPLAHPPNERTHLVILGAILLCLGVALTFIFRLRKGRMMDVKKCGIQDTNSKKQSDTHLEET

T1 sequence (Q9NZQ7 19-238 limits assumed): as the sequence (Q9NZQ7 19-238 limits assumed) above

| percent (%) inhibition of PD-1/PD-L1 interaction [1] | blocking of PD-1/PD-L1 interaction (summary of the foregoing assay results) (PD-1/PD-L1 interaction [3]) | Molecule | toxicity to mice (tumour cell line LL/2) | IL-2 concentration (PD-1/PD-L1 interaction [2]) | IL-2 concentration (PD-1/PD-L1 interaction [3]) |
| --- | --- | --- | --- | --- | --- |
|  |  | CSCC[C@@H](NC(=O)[C@@H](CO)NC(=O)[C@H]1CCCN1C(=O)[C@@H](CO)NC(=O)[C@@H](CC(N)=O)NC(=O)[C@@H](CCC(N)=O)NC(=O)[C@H](N)[C@H](C)O)C(=O)N[C@H](CCCNC(=N)N)C(=O)N[C@H](Cc1ccc(O)cc1)C(=O)N[C@H](Cc1c[nH]c2ccccc12)C(=O)O [D-TW, TQNSPSMRYW] | generally non-toxic |  |  |
| the percent (%) inhibition increased | able to block PD-1/PD-L1 interaction | TAHPSPSPRSAGQF [TF] |  | yielded an increase in IL-2 concentration | yielded an increase in IL-2 concentration |
| the percent (%) inhibition increased | able to block PD-1/PD-L1 interaction | WYRMSPSNQT [WT] |  |  | yielded an increase in IL-2 concentration |
